Consider 3 substances from publication PMC2760630.

The subject of the data set is [H][C@@]12COP(=O)(O)O[C@@]1([H])[C@@H](O)[C@H](n1cnc3c(=O)[nH]c(N)nc31)O2. As to the kind of experiment: purified protein.
Setting [1] is: catalytic site (Km, reduced affinity), allosteric cGMP binding unchanged.

As usually defined, the Km is the concentration of substrate that gives half-maximal velocity. With “PDE5 (human PDE5A1, G659A) (Homo sapiens; G659A)”, the Michaelis constant (Km) under setting [1] worked out at 71.2 ± 1.2 µM.
Take “PDE5 (human PDE5A1, G659P) (Homo sapiens; G659P)”: the Km under setting [1] was 131.5 ± 7.4 µM.
Turning to PDE5 (human PDE5A1, WT) (Homo sapiens), the Km (catalytic site (Km), also allosteric site) came to 2.91 ± 0.8 µM.
